Measurements: the supplement of paper PMC9112550, “Optimization of the antimicrobial peptide Bac7 by deep mutational scanning” (BMC Biology, 2022)

system: Escherichia coli TOP10; test: shrunken log2 fold change of peptide-encoding DNA abundance (4.5 h post-induction vs induction); higher = less antimicrobial activity (less host growth inhibition); conditions: time post-induction: 4.5 h; library: site-saturation at positions 5, 18, 19, 20
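Further: peptides expressed intracellularly from a pBAD plasmid library in pooled LB shake-flask culture, induced with 0.3% L-arabinose, DNA abundance read by NGS, three biological replicates, DESeq2 with apeglm shrinkage.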

| Sequence | shrunken log2 fold change |
| --- | --- |
| RRIRNRPPRLPRPRPRPGFIPRP | 0.0474 |
| RRIRGRPPRLPRPRPRPDGVPRP | 0.368 |
| RRIRYRPPRLPRPRPRPIVCPRP | -0.134 |
| RRIRPRPPRLPRPRPRPVVQPRP | 0.28 |
| RRIRDRPPRLPRPRPRPKGNPRP | 0.0802 |
| RRIRARPPRLPRPRPRPQMCPRP | 0.00812 |
| RRIRGRPPRLPRPRPRPLHSPRP | 0.529 |
| RRIRIRPPRLPRPRPRPLCVPRP | -0.551 |
| RRIRGRPPRLPRPRPRPPCEPRP | 0.433 |
| RRIRYRPPRLPRPRPRPNVLPRP | -0.554 |
| RRIRGRPPRLPRPRPRPSIRPRP | 0.417 |
| RRIRQRPPRLPRPRPRPGLEPRP | 0.134 |
| RRIRCRPPRLPRPRPRPFTIPRP | -0.0284 |
| RRIRQRPPRLPRPRPRPENPPRP | 0.0317 |
| RRIRRRPPRLPRPRPRPAGVPRP | 0.518 |
| RRIRCRPPRLPRPRPRPFLTPRP | -0.565 |
| RRIRKRPPRLPRPRPRPTRQPRP | 0.724 |
| RRIRARPPRLPRPRPRPICCPRP | 0.316 |
| RRIRGRPPRLPRPRPRPFNHPRP | -0.357 |
| RRIRPRPPRLPRPRPRPWMVPRP | 0.0262 |
| RRIRKRPPRLPRPRPRPLHFPRP | -0.258 |
| RRIRPRPPRLPRPRPRPQVVPRP | -0.00675 |
| RRIRPRPPRLPRPRPRPQPQPRP | 0.26 |
| RRIRTRPPRLPRPRPRPRQMPRP | 0.641 |
| RRIRNRPPRLPRPRPRPITPPRP | 0.119 |

| Sequence | shrunken log2 fold change |
| --- | --- |
| RRIRWRPPRLPRPRPRPHNGPRP | -0.349 |
| RRIRYRPPRLPRPRPRPIWYPRP | -0.0575 |
| RRIRMRPPRLPRPRPRPCKLPRP | -0.00365 |
| RRIRVRPPRLPRPRPRPQHGPRP | 0.14 |
| RRIRGRPPRLPRPRPRPEPGPRP | 1.33 |
| RRIRERPPRLPRPRPRPPSGPRP | 0.275 |
| RRIRDRPPRLPRPRPRPTSAPRP | 0.418 |
| RRIRSRPPRLPRPRPRPQKRPRP | -0.343 |
| RRIRRRPPRLPRPRPRPQADPRP | 0.312 |
| RRIRFRPPRLPRPRPRPIMDPRP | -0.212 |
| RRIRWRPPRLPRPRPRPADMPRP | 0.0185 |
| RRIRCRPPRLPRPRPRPWKKPRP | -0.0238 |
| RRIRRRPPRLPRPRPRPHPTPRP | 0.563 |
| RRIRGRPPRLPRPRPRPVCKPRP | 0.124 |
| RRIRTRPPRLPRPRPRPSDIPRP | -0.0989 |
| RRIRMRPPRLPRPRPRPWYGPRP | -0.0162 |
| RRIRWRPPRLPRPRPRPDCHPRP | -0.346 |
| RRIRDRPPRLPRPRPRPEVSPRP | 0.3 |
| RRIRERPPRLPRPRPRPHKKPRP | 0.0621 |
| RRIRFRPPRLPRPRPRPELEPRP | 0.537 |
| RRIRSRPPRLPRPRPRPPSGPRP | 0.489 |
| RRIRERPPRLPRPRPRPQSFPRP | -0.0705 |
| RRIRMRPPRLPRPRPRPQNAPRP | 0.0821 |
| RRIRCRPPRLPRPRPRPHCPPRP | -0.508 |
| RRIRIRPPRLPRPRPRPNGYPRP | -0.0764 |

| Sequence | shrunken log2 fold change |
| --- | --- |
| RRIRNRPPRLPRPRPRPVQGPRP | 0.295 |
| RRIRARPPRLPRPRPRPTQPPRP | 0.228 |
| RRIRRRPPRLPRPRPRPKTPPRP | 0.782 |
| RRIRRRPPRLPRPRPRPTIYPRP | -0.1 |
| RRIRWRPPRLPRPRPRPITCPRP | -0.0627 |
| RRIRFRPPRLPRPRPRPPKKPRP | 0.847 |
| RRIRYRPPRLPRPRPRPQADPRP | -0.323 |
| RRIRHRPPRLPRPRPRPVLKPRP | -0.295 |
| RRIRERPPRLPRPRPRPNQYPRP | -0.674 |
| RRIRARPPRLPRPRPRPIEPPRP | 0.0525 |
| RRIRNRPPRLPRPRPRPKGCPRP | -0.0382 |
| RRIRVRPPRLPRPRPRPHNIPRP | -0.392 |
| RRIRPRPPRLPRPRPRPEMQPRP | 1.05 |
| RRIRYRPPRLPRPRPRPQHYPRP | -0.466 |
| RRIRLRPPRLPRPRPRPKSQPRP | 0.00795 |
| RRIRSRPPRLPRPRPRPWWQPRP | -0.0257 |
| RRIRMRPPRLPRPRPRPTPQPRP | 1.31 |
| RRIRFRPPRLPRPRPRPKGDPRP | 0.054 |
| RRIRLRPPRLPRPRPRPNDFPRP | -0.0142 |
| RRIRHRPPRLPRPRPRPFNKPRP | -0.01 |
| RRIRSRPPRLPRPRPRPMLCPRP | -0.121 |
| RRIRERPPRLPRPRPRPLMKPRP | -0.502 |
| RRIRCRPPRLPRPRPRPSAGPRP | 0.194 |
| RRIRMRPPRLPRPRPRPARAPRP | 1.43 |
| RRIRRRPPRLPRPRPRPDGCPRP | 0.165 |

| Sequence | shrunken log2 fold change |
| --- | --- |
| RRIRERPPRLPRPRPRPDGQPRP | -0.388 |
| RRIRERPPRLPRPRPRPEDNPRP | 0.0813 |
| RRIRQRPPRLPRPRPRPAWHPRP | 0.0212 |
| RRIRYRPPRLPRPRPRPCFSPRP | -0.594 |
| RRIRYRPPRLPRPRPRPADMPRP | -0.382 |
| RRIRCRPPRLPRPRPRPRGQPRP | -0.0954 |
| RRIRYRPPRLPRPRPRPLYFPRP | -1.15 |
| RRIRNRPPRLPRPRPRPIAAPRP | 0.147 |
| RRIRQRPPRLPRPRPRPHNGPRP | -0.072 |
| RRIRPRPPRLPRPRPRPLSNPRP | -0.1 |
| RRIRFRPPRLPRPRPRPQVVPRP | -0.152 |
| RRIRSRPPRLPRPRPRPPPCPRP | 0.408 |
| RRIRVRPPRLPRPRPRPVMMPRP | -0.938 |
| RRIRHRPPRLPRPRPRPKDVPRP | 0.0703 |
| RRIRYRPPRLPRPRPRPGIYPRP | -0.288 |
| RRIRDRPPRLPRPRPRPEHTPRP | 0.225 |
| RRIRTRPPRLPRPRPRPGGRPRP | 0.384 |
| RRIRVRPPRLPRPRPRPPFNPRP | -0.303 |
| RRIRHRPPRLPRPRPRPGFPPRP | 0.336 |
| RRIRGRPPRLPRPRPRPCEYPRP | 0.0669 |
| RRIRIRPPRLPRPRPRPHNAPRP | -0.549 |
| RRIRKRPPRLPRPRPRPPTDPRP | 0.544 |
| RRIRQRPPRLPRPRPRPHTIPRP | -0.412 |
| RRIRMRPPRLPRPRPRPYKKPRP | -0.161 |
| RRIRCRPPRLPRPRPRPIWRPRP | 0.285 |

| Sequence | shrunken log2 fold change |
| --- | --- |
| RRIRHRPPRLPRPRPRPNGTPRP | -0.297 |
| RRIRMRPPRLPRPRPRPCNCPRP | -0.0499 |
| RRIRLRPPRLPRPRPRPSCDPRP | -0.417 |
| RRIRRRPPRLPRPRPRPMPNPRP | 0.129 |
| RRIRVRPPRLPRPRPRPNTKPRP | 0.181 |
| RRIRSRPPRLPRPRPRPHSVPRP | -0.036 |
| RRIRWRPPRLPRPRPRPRECPRP | 0.605 |
| RRIRDRPPRLPRPRPRPTRWPRP | 1.38 |
| RRIRWRPPRLPRPRPRPGNPPRP | -0.139 |
| RRIRSRPPRLPRPRPRPQDKPRP | -0.0231 |
| RRIRRRPPRLPRPRPRPHGDPRP | 0.0543 |
| RRIRWRPPRLPRPRPRPPFMPRP | 0.0466 |
| RRIRNRPPRLPRPRPRPSFQPRP | -0.274 |
| RRIRHRPPRLPRPRPRPCLAPRP | -0.0627 |
| RRIRQRPPRLPRPRPRPFFQPRP | -0.0889 |
| RRIRMRPPRLPRPRPRPTELPRP | 0.172 |
| RRIRDRPPRLPRPRPRPEFGPRP | 0.914 |
| RRIRKRPPRLPRPRPRPSKDPRP | 0.395 |
| RRIRVRPPRLPRPRPRPIGNPRP | -0.194 |
| RRIRPRPPRLPRPRPRPPMHPRP | 0.359 |
| RRIRMRPPRLPRPRPRPNEYPRP | -0.0432 |
| RRIRSRPPRLPRPRPRPKERPRP | 0.265 |
| RRIRYRPPRLPRPRPRPTEIPRP | -0.41 |
| RRIRLRPPRLPRPRPRPCMMPRP | -0.225 |
| RRIRWRPPRLPRPRPRPSSVPRP | 0.278 |

| Sequence | shrunken log2 fold change |
| --- | --- |
| RRIRERPPRLPRPRPRPERVPRP | -0.0309 |
| RRIRYRPPRLPRPRPRPCSAPRP | -0.212 |
| RRIRVRPPRLPRPRPRPPYGPRP | 0.024 |
| RRIRARPPRLPRPRPRPWTWPRP | -0.327 |
| RRIRIRPPRLPRPRPRPGMYPRP | 0.123 |
| RRIRNRPPRLPRPRPRPSAGPRP | -0.225 |
| RRIRDRPPRLPRPRPRPWRSPRP | 0.105 |
| RRIRLRPPRLPRPRPRPDWSPRP | -0.124 |
| RRIRIRPPRLPRPRPRPYYDPRP | -0.0728 |
| RRIRERPPRLPRPRPRPGVYPRP | -0.049 |
| RRIRMRPPRLPRPRPRPTVQPRP | -0.0862 |
| RRIRGRPPRLPRPRPRPSWLPRP | 0.519 |
| RRIRPRPPRLPRPRPRPPDIPRP | -0.602 |
| RRIRDRPPRLPRPRPRPIRMPRP | -0.0588 |
| RRIRQRPPRLPRPRPRPQKSPRP | 0.0118 |
| RRIRLRPPRLPRPRPRPRENPRP | 0.345 |
| RRIRWRPPRLPRPRPRPTCGPRP | 0.73 |
| RRIRIRPPRLPRPRPRPSRSPRP | -0.605 |
| RRIRWRPPRLPRPRPRPLYKPRP | -0.849 |
| RRIRWRPPRLPRPRPRPNFAPRP | 0.29 |
| RRIRQRPPRLPRPRPRPDYHPRP | -0.269 |
| RRIRMRPPRLPRPRPRPYCSPRP | -0.122 |
| RRIRWRPPRLPRPRPRPAQIPRP | 0.0333 |
| RRIRIRPPRLPRPRPRPILPPRP | 0.0798 |
| RRIRQRPPRLPRPRPRPEMIPRP | -0.0264 |
